Data on 34 molecules can be found in US20070197446A1, “MHC binding peptides and their uses” (ProImmune Limited, priority 2006, published 2007).

For the first assay, the target named is HLA-A*0101.
Assay: not given
For KSDQICIGY (modifications not checked) [… (SEQ ID NO: 9)], the ELISA (Absorption-Pass/Fail Control) was found to be 0.47 absorption.
With FINVPEWSY (modifications not checked) [… (SEQ ID NO: 10)], the ELISA (Absorption-Pass/Fail Control) worked out at 0.16 absorption.

In a further assay the target is HLA-A*0201.
Assay: not given
IMEKNVTVT (modifications not checked) [… (SEQ ID NO: 19)] came in with an ELISA (Absorption-Pass/Fail Control) of 0.02 absorption.
The same measure, in the same setting: the result for HANNSTEQV (modifications not checked) [… (SEQ ID NO: 17)] reads 0.43 absorption; that for AQDILEKKH (modifications not checked) [… (SEQ ID NO: 21)], 0.15 absorption.
The same measure, in the same setting: the result for SLVKSDQIC (modifications not checked) [… (SEQ ID NO: 16)] reads 0.09 absorption; that for MEKNVTVTH (modifications not checked) [… (SEQ ID NO: 20)], -0.02 absorption.
In the case of TIMEKNVTV (modifications not checked) [… (SEQ ID NO: 18)], the ELISA (Absorption-Pass/Fail Control) came out at 0.99 absorption.
FAIVSLVKS (modifications not checked) [… (SEQ ID NO: 13)] yielded an ELISA (Absorption-Pass/Fail Control) of 0.07 absorption.
Consider VLLFAIVSL (modifications not checked) [… (SEQ ID NO: 11)], for which the ELISA (Absorption-Pass/Fail Control) turned out to be 0.47 absorption.
NVPEWSYIV (modifications not checked) [… (SEQ ID NO: 25)] yielded an ELISA (Absorption-Pass/Fail Control) of 1.03 absorption.
On the same count and under the same terms, the figure for IVSLVKSDQ (modifications not checked) [… (SEQ ID NO: 15)] is 0.04 absorption.
On the same count and under the same terms, the result for PMCDEFINV (modifications not checked) [… (SEQ ID NO: 24)] reads 0.98 absorption.
LILRDCSVA (modifications not checked) [… (SEQ ID NO: 23)]: the ELISA (Absorption-Pass/Fail Control) came out at 0.57 absorption.
The same measure, in the same setting: the result for AIVSLVKSD (modifications not checked) [… (SEQ ID NO: 14)] reads 0.43 absorption; that for KLCDLDGVK (modifications not checked) [… (SEQ ID NO: 22)], 0.2 absorption; that for LLFAIVSLV (modifications not checked) [… (SEQ ID NO: 12)], 1.06 absorption.

The target in another assay is HLA-A*0301.
Assay: not given
With NVTVTHAQD (modifications not checked) [… (SEQ ID NO: 27)], the ELISA (Absorption-Pass/Fail Control) was -0.04 absorption.
Turning to KSDQICIGY (modifications not checked) [… (SEQ ID NO: 9)], the ELISA (Absorption-Pass/Fail Control) worked out at 0.05 absorption.
Same read-out and setting: the result for ILEKKHNGK (modifications not checked) [… (SEQ ID NO: 28)] reads -0.01 absorption; that for KLCDLDGVK (modifications not checked) [… (SEQ ID NO: 22)], 1.16 absorption.

A further assay deals with HLA-B*0702.
Assay: not given
On to LVKSDQICI (modifications not checked) [… (SEQ ID NO: 29)], for which the ELISA (Absorption-Pass/Fail Control) was -0.06 absorption.
Take TIMEKNVTV (modifications not checked) [… (SEQ ID NO: 18)]: the ELISA (Absorption-Pass/Fail Control) was 0 absorption.
The same measure, in the same setting: the figure for ILRDCSVAG (modifications not checked) [… (SEQ ID NO: 30)] is 0.03 absorption.

The target of the next assay is HLA-B*0801.
Assay: not given
WLLGNPMCD (modifications not checked) [… (SEQ ID NO: 38)]: the ELISA (Absorption-Pass/Fail Control) was 0.03 absorption.
Same read-out and setting: the result for NVTVTHAQD (modifications not checked) [… (SEQ ID NO: 27)] reads 0.08 absorption.
Still for that read-out and setting: the figure for PLILRDCSV (modifications not checked) [… (SEQ ID NO: 36)] is 0.65 absorption.
Still for that read-out and setting: the figure for TIMEKNVTV (modifications not checked) [… (SEQ ID NO: 18)] is 0.8 absorption.
Take GNPMCDEFI (modifications not checked) [… (SEQ ID NO: 39)]: the ELISA (Absorption-Pass/Fail Control) was 0.04 absorption.
In turn, VTHAQDILE (modifications not checked) [… (SEQ ID NO: 33)] displayed an ELISA (Absorption-Pass/Fail Control) of 0.31 absorption.
On the same count and under the same terms, the result for VSLVKSDQI (modifications not checked) [… (SEQ ID NO: 31)] reads 0.36 absorption; that for DTIMEKNVT (modifications not checked) [… (SEQ ID NO: 32)], 0.08 absorption; that for DILEKKHNG (modifications not checked) [… (SEQ ID NO: 34)], 0.53 absorption.
For the molecule ILEKKHNGK (modifications not checked) [… (SEQ ID NO: 28)], the ELISA (Absorption-Pass/Fail Control) amounted to 0.95 absorption.
Still for that read-out and setting: the result for LILRDCSVA (modifications not checked) [… (SEQ ID NO: 23)] reads 0.07 absorption; that for KPLILRDCS (modifications not checked) [… (SEQ ID NO: 35)], 0.1 absorption.
Same read-out and setting: the result for VAGWLLGNP (modifications not checked) [… (SEQ ID NO: 37)] reads 0.04 absorption.

The target in a further assay is HLA-B*3501.
Assay: not given
The molecule LGNPMCDEF (modifications not checked) [… (SEQ ID NO: 43)] yielded an ELISA (Absorption-Pass/Fail Control) of 0.35 absorption.
The same measure, in the same setting: the figure for LFAIVSLVK (modifications not checked) [… (SEQ ID NO: 40)] is 0.1 absorption; for LVKSDQICI (modifications not checked) [… (SEQ ID NO: 29)] it is 0.04 absorption.
The same measure, in the same setting: the result for HANNSTEQV (modifications not checked) [… (SEQ ID NO: 17)] reads 0.43 absorption.
The same measure, in the same setting: the result for SLVKSDQIC (modifications not checked) [… (SEQ ID NO: 16)] reads -0.03 absorption.
Consider FINVPEWSY (modifications not checked) [… (SEQ ID NO: 10)], for which the ELISA (Absorption-Pass/Fail Control) worked out at 0.57 absorption.
For AGWLLGNPM (modifications not checked) [… (SEQ ID NO: 42)], the ELISA (Absorption-Pass/Fail Control) was -0.06 absorption.

A further assay concerns the target HLA-B*3501. As to the kind of experiment: MHC-peptide assembly over 24 h, ELISA with conformational antibody; reading minus pass/fail control.
As to HPVGEADYFEY (modifications not checked) [… (SEQ ID NO: 8)], the ELISA (Absorption-Pass/Fail Control) is 0.55 absorption.
